{"source": "the DeepSol protein solubility set"}
{"assay": "soluble on expression in E. coli; label from the status in PepcDB or PDB records"}
{"sequence": "GHMKQSHFFAHLSRLKLINRWPLMRNVRTENVSEHSLQVAMVAHALAAIKNRKFGGNVNAERIALLAMYHDASEVLTGDLPTPVKYFNSQIAQEYKAIEKIAQQKLVDMVPEELRDIFAPLIDEHAYSDEEKSLVKQADALCAYLKCLEELAAGNNEFLLAKTRLEATLEARRSQEMDYFMEIFVPSFHLSLDEISQDSPL", "soluble on expression in E. coli": "soluble"}
{"sequence": "GPGSDVFFSGYLNKLKGGDNHSWKKRYLQVQKGHFIMSDKESDTEGKALSLEHIQSVCPVPVSTAKREHVFALHTTSGKSMWFEAASLENMEEWIHAIQCGLGVA", "soluble on expression in E. coli": "soluble"}
{"sequence": "MGSDKIHHHHHHMFLRFFSELRQAKVPVSLREYLLLMEALDKDVIDRSVEDFYFLSRASLVKDEKNLDKFDRVFSHVFKGLETVNDGLAADIPEEWLKALTEKFLTDEEKAQIEALGGFEKLMETLQERLREQKKRHEGGNKMIGSGGTSPFGNNGYNPEGVRIGQDKGRHGRAVKVWDKREYKNLDDSVELGTRNIKVALRRLRKFARTGAAEELDLNGTIKGTAEKGYLDIQLRPERRNAIKVLLFFDIGGSMDSHIKLCEELFSAARTEFKNLEFYYFHNCLYETVWKDNKRRQTEKIPTFDVLHKFPADYKVIFVGDATMSPYEITYPGGSVEHWNEEPGAIWMQRVTEIYQSCIWLNPTPERHWDYTQSIGVMRQIMADRMFPLTIEGLDKAMRELVRG", "soluble on expression in E. coli": "not soluble"}
{"sequence": "GPGSPKLVRINTNEKGITNVQLARAPVNSMSLELFQELNQWMLWLGSNEETKAVIISSAIPTVFSAGLDLVEVHNPKPDRVAVFWQSFQEMWLILNSFPKPIIAAITGNSPAAGCIIAMGCDYRVMARGPKGNTNNNRLYRIGLNETKLGLVAPPWVMPAYAYLLGSRQAERMLQLGETPVADDARNLGLIDEVAADEERAIEVAYQQAERFLSVPQQSRWMARDMMRREYLQMLASDEERNYDTEFFTQFVQSPEVQKNLESYLERLKSCSRK", "soluble on expression in E. coli": "soluble"}
{"sequence": "MSTWRDSLLPASFRGVGFFIEKAVVPVGRKGQLHEFPQRDEPYFESLGKQAQVHTLTAFIVGRDCFEKRDNLLQALEKDGAGELVHPWLGRMQVQV", "soluble on expression in E. coli": "not soluble"}
{"sequence": "MSKRKAEEAPAPKLASIFTKKVKPAEEDNNQKSWKFVCWNVAGLRACVKKSDFKEVLAEEPDLVFLGETKCKEWPPEMEETFKNYTKTLVVSTEKNGGYAGVGLLSKCAPMKVHKGIGDPEFDTAGRLIIAEFSKFYFIGAYVPNSGAKLVNLEKRGRWEKLLTEKMKEMDEKKPVIYGGDLNVAHNEIDLKNPESNRNKTAGFTDQERGWFSEMLELGFTDTFRAMHPDEKKYSFWSYLANSRQKDVGWRLDYYVVSNRIMNKVKRSDIMSSVMGSDHAPVVMQIDF", "soluble on expression in E. coli": "soluble"}
{"sequence": "MSLENDFPLKGKTVLVTRNKAQAASFQQKVEALGGKAVLTSLITFRRALPNDVAEQVREDLAAPGWLVFTSVNGADFFFSYLKENQLILPAHKKIAAVGEKTARRLKMHNVSVDVMPQEYIAEQLADALKQHAEPGETITVMKGNLSRDVIKQELVPLGFEVKEWVLYETIPDEEGIEALKDAAGQYSFDYVTFTSSSTVHTFMHVLGEELKKWKANGTACISIGPLTNDALLTYGITSHTPDTFTIDGMLELMCSMSREEERIEGHHHHHH", "soluble on expression in E. coli": "soluble"}
{"sequence": "MGSDKIHHHHHHMFERDNREDEAAELVTLAAKLKALMKPDVARRVEPDLEALLEAEGLAMRPGPRPMIDTDLVQELRQAMITCSKVKLRYRNRRTRQANERIVHPYAFLHGHRNYLIAWHEHPKANKVALFALPHIEAVDATGEPFVRDPGFQLQDFAARSFGLFQDEPFQTAWKFAPDAADDAAEFLFHPSQAQERLPDGSLIVRFVAASELEMAWHLYAWGDKVEVLEPQKLAEMVNPGRVAWPALP", "soluble on expression in E. coli": "not soluble"}
{"sequence": "MSSDNEIEDLKRAFIFALRKKFPRDSSSSIAIATVNLIRKIIFRENPKTMNDLQVSLANHCKKLHGAERSELIIINIGLMITKLARDEVLQKKGGGEPEPLYTLWRDDDETIKKLKTADMKKIKKDLQASIKELVTEIESSRECIASQSTELLFNNDVVLVHSLRSSQTMHNFLSHAVKSGRKHRVIDVVDEEEHIESTPDFATAIELYEVASKMPEASKVVLVAAAYFPDGSCLVPAGGHQIALLAKRHCVPVYVLAPFYKLCPFFMTNPDSLHTFRSNSLPFDLSAKSAGLVDCLHPAFDCLQSDLVTLFVSNTSCVIPSHVNRLKEDYYHSQDIADY", "soluble on expression in E. coli": "not soluble"}
{"sequence": "GSHMKITYPLPPNLPEQLPLLTNCQLEDEAILENHLYQQIDLPNQEVRNLVFRDAVFDHLSLANGQFASFDCSNVRFEACDFSNVEWLSGSFHRVTFLRCNLTGTNFADSYLKDCLFEDCKADYASFRFANFNLVHFNQTRLVESEFFEVTWKKLLLEACDLTESNWLNTSLKGLDFSQNTFERLTFSPNYLSGLKVTPEQAIYLASALGLVIT", "soluble on expression in E. coli": "soluble"}
{"sequence": "MQCHVKDEVLYIGKKEFEEPIKSEWVLEMQNTEKYKTIGPTFPDGTINWQCPCMAGGSLVAHRCGNFFRELYICMKSDDTRDPSEKCPNQFVNWAACMQNMSDERREQMRKAMTVDTEELKINPK", "soluble on expression in E. coli": "not soluble"}
{"sequence": "MGHHHHHHSHMENKMESIEQQVEVLLEQEPQLLPAAMAERLGVTEFDVVAALPQEMVAISPGEQAQTILESLVGFGPVTTIVHSFGSIFEVKAPFPKGKVARGYYNLMGREGELHGHLKLDNVKNIALVSKPFMGRESHYFGFFSECGSNIFKVYLGRDEKRELIAEQVTAFRAMQAELNQ", "soluble on expression in E. coli": "soluble"}
{"sequence": "MAHHHHHHMSITSRFIGGVKHLLKGGSMKYLAAGEPYCPFGEAFGLTILPEYILEDDASNLRKGYVDVYTRASDRIILNDGRFQLPPLPPASFMPLLERLEQDNVVPKSWLNNQTANLYEPGDFIRAHIDNLFVYDDIFAICSLGSNCLLRFVHVQNGEELDVMVPDRSVYIMSGPARYVYFHMVLPVEAQRFSLVFRRSIMESDGGFRPVKTPFKEIMPYRATQILNALYSKQVGGVRVSVDDDFLESADIGAFDTSRWVKRLHPLRDWSLLRQLDEDEARVEALREKRFIDVDFSWRYRELRSYYKAMEESLVSPHVAHVTPQA", "soluble on expression in E. coli": "soluble"}
{"sequence": "GPGSMRPSRKRQARRQHPWQQRSVAHKAQRAPSSGHGASGVEHLPRDAVVHVAPRQQHRPVGQAHRRIKRHRVVLRQQKVVPHKRHSRARHAHSPTHRHRVLAQQEVAVNKRHHGAATGRNTALHRHAQPQRRLHRQPVHVERTARRQRHAAN", "soluble on expression in E. coli": "soluble"}
{"sequence": "MSLYTINIIPRVLHFKQPAGTSRGSYTTRNVWYIHLSSIECPGRVGVGECAPLPKLSCDDLPDYEQVLRSACQRLEQTGELDIESLRGYPSILFGLETALRHYETQSWALWDTPFSRGEVGIPINGLIWMGSFDRMLQQIEVKMQAGYRCIKLKIGAINFEEELALLRHIRAHYSAREIELRVDANGAFSPADAMDKLNRLAELDLHSIEQPIRAGQWEEMARLAAESPLPIALDEELIGCNALERKRELLAAIHPRYIILKPSLHGGISGGNEWIAEAEKQHIGWWITSALESNIGLNAIAQWCATFRNPLPQGLGTGLLFTDNVEMPLEIRKDCLWFCKEGHHHHHH", "soluble on expression in E. coli": "soluble"}
{"sequence": "MPIRGFHYRGDEAIYPASVVKLFYLVAALEWLQQGMIQPSAELDRALRDMIVDSSNDATGYIVDLLSGTTSGPELGDGPFKTWQFQRNIVNRYYQSLMWPELQPINVNQKTWGDGPYGRERAFYGPEFENRNKLTTNATARLLHAIAGGVAVSPSASQRMLNLLNRPFDPRSLAEDPENQVTGFLGQDLPQGSQLWSKAGWMSRVRHDAAYLEIPGLPPHLLVAFTEGKEHANNEAILPFIAQQVRQQLQPALEHHHHHH", "soluble on expression in E. coli": "not soluble"}
{"sequence": "MGSDKIHHHHHHMSNSSRLSVASNSQDATSPLRLLVLSNGHGEDVIAVRILQELQRQSNPPEIFALPLVGEGRAYQQLEIPLIGSVRTMPSGGFIYMDGRQLARDVRGGLLQLTLSQIKAVRRWVSSQKKLGNKRAILAVGDIVPLLFATFSGANYAFVGTAKSEYYVRDEAGLLPRKSKDARWENFSGSVYHPWERWLMSRRRCKAVFPRDVLTTETLKQWPIPAFNLGNPMMDGLQPTFSRQQFYSRDSHQQETVRPLMVTLLPGSRPPEAYTNWEKIMIAVSALMASFQERDSVFYTSGTVVFLGAIAPGLDSNILSQSVQSQGWRAESVCPIQLPDPNILTFKQRNAYLLLTQQSYNDCLHLGDFAIAMAGTATEQFIGLGKPAIAIPGNGPQYNPAFAEAQSRHLGSSLILVEQPAEVAEIVQSLFKDPDILQIIAENGLRRMGKPGAALRIAECLQERLS", "soluble on expression in E. coli": "not soluble"}
{"sequence": "MGSDKIHHHHHHMMYTNDNRIVMTLDAGGTNFVFSAIQGGKEIADPVVLPACADCLDKCLGNLVEGFKAIQAGLPEAPVAISFAFPGPADYQAGIIGDLPNFPSFRGGVALGPFLEDIFGIPVFINNDGSLFAYGEALTGVLPEINRRLREAGSTKRYKNLLGVTLGTGFGAGVVIDGELLRGDNAAGGYVWCLRNKKYPEYIVEESVSIRAVMRVYAERSGDAGARTPKEIFEIAEGIRPGNREAAIAAFEELGEMAGDALASAITLIDGLIVIGGGLSGASKYILPVLLKEMNAQTGMMDGARFGRLQKEVYDLDEEKSFAGFARGEAVEVLVPGTNRKVGYDPCKRIGVTFSKQGANRSIAMGAYVFALNHLSK", "soluble on expression in E. coli": "not soluble"}
{"sequence": "MGSDKIHHHHHHMKAVNENLKEQFVKRNKLAICATLRELKKNDTSLMVHHSHGQFISKILDVVPDNNLFVFDLGGIERENSRALYAGALSFIAEPAGAKVEFNAEIAKTVNYDGLPAFSAQIPELLYLIQRRTYFRINTPLWPPLTCRGELPDDSVFTFTIKDLSLGGLSLYTDRDTTGLLTEGDIIKSVEMDLADHGFFCVDLQFVGQAMVKIVDNKGELKLTQRLSFKFPSLNAAQERDLQQVIFELEKLQNEKKKRFQEL", "soluble on expression in E. coli": "not soluble"}
{"sequence": "TDPDCDRVGIVVKDSSGEYVVLNGNQVGSLLVRYILESLVEENKLPKNNPTIIKTIVTSELGAKIAKAYNVDCLNTLTGFKFIGEKIKAFEESNDRSFIMGYEESYGYLIGTHARDKDGVVSSLMICEMAAYYSSKGMNLYEALIDTYNKFGY", "soluble on expression in E. coli": "not soluble"}
{"sequence": "MGPNPMKMYPIEGNKSVQFIKPILEKLENVEVGEYSYYDSKNGETFDKQILYHYPILNDKLKIGKFCSIGPGVTIIMNGANHRMDGSTYPFNLFGNGWEKHMPKLDQLPIKGDTIIGNDVWIGKDVVIMPGVKIGDGAIVAANSVVVKDIAPYMLAGGNPANEIKQRFDQDTINQLLDIKWWNWPIDIINENIDKILDNSIIREVIWKK", "soluble on expression in E. coli": "soluble"}
{"sequence": "MGSDKIHHHHHHMKLNHRQLEAFRAMIETGSVTEASKRIGVTQPAASRLISDLEYAIGYALFLREKKRLTPTPEAMALFEEVDRSYIGLGLIGDAARDIGANRRGALRIASLPAMALSFLPKVISKFCEDKPDISVDMQIHSSQRVIQCVASQQFDLGFAEIDSLHPAVKSQAFFESPMVAILPKHHPLCRKATLTPQDFSNENFIALGSNYTMRKRIDALFLANNITRKIQIETQLSMAVANLVASGAGVSIIEALTASSFRGLNLVEARPFLPEITYTYRVLSPAHRPISLLTASFINATRDALMKFDVSGHAL", "soluble on expression in E. coli": "not soluble"}
{"sequence": "MLTGLLDVPYRKSFALLEELLERREAEEQTLAISTLATQLKMQQNTILQSVALLQTEIEKNGWENLFSLSANAKEITFWFAPYFQLSFLMPYFVKKSFAYQVLTYAFNHNAIDSKHFEKVLEISSSTFTRKIGQLNQWLQKYQIEINLKRTNVLVGKEKDIRIFFMMLFWNNYSEGDWPLHTITKKEVHSLFRRLKHSVSFNTTQDFTKDLIFSAVILARWKEGFFIKETFVEEEAIVNPFVNLSEFELFFKEEALHQVPTKFIQKEGLFAFFLLTISVSYATQDVLEIPAARMHMVQLLGSPIKEIIYQLTSFYQIKLTFHEYLYLYTSIQNLSVFFKTFVTIANPFVQESFLKEALQKIQVSTKM", "soluble on expression in E. coli": "not soluble"}
